Results taken from patent EP2130555A1.

Legend:
[1] = molecular target: hexahistidine-tagged bacterial gyrase subunit B (GyrB) of E. coli (E. coli) (UniProt P0AES6); test: ultrafiltration through a 50 kDa cut-off filter, with coumermycin (GyrB : coumermycin = 2:1; dimer is held back)
[2] = molecular target: hexahistidine-tagged bacterial gyrase subunit B (GyrB) of E. coli (E. coli) (UniProt P0AES6); test: cell-based or functional assay
[3] = molecular target: hexahistidine-tagged bacterial gyrase subunit B (GyrB) of E. coli (E. coli) (UniProt P0AES6); test: ultrafiltration through a 50 kDa cut-off filter, without coumermycin (monomer passes the filter)

“hexahistidine-tagged bacterial gyrase subunit B (GyrB) of E. coli (from UniProt P0AES6 1-220) (enzyme)” showed a % of protein in filtrate [1] of 2.8%, a hydrogel dissolution in PBS with 1 mM novobiocin, followed by release of GyrB-polymer complexes into the buffer [2] of 11 h and a stability of hydrogels with DMS-crosslinked GyrB dimers in PBS with 1 mM novobiocin [2] of 31 h. The % of protein in filtrate [3] was 54%.
